Measured values from the supplement of paper PMC11865577.

Tests used:
Assay in all cases: pull-down binding Z-score (relative to library population); higher = stronger binding
[1] = test system: G-clamp-N3 (biotin conjugate); details: RNA library: Library-1 (pre-miRNA loops + repeats)
In short: (§1)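 Biotin-conjugated small molecule (100 pmol) on streptavidin beads was incubated with 1 μg of heat-folded Cy5- or Cy3-end-labelled RNA library in phosphate/NaCl/KCl buffer at 25 °C for 60 min. Following three washes, RNA was eluted with hot SDS and hybridised at 55.5 °C for 20 h to a DNA barcode microarray. The binding value is a Z-score computed from the library mean and standard deviation, after subtraction of beads without compound and averaging of barcoded replicate probes with the highest and lowest excluded.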

[2] = test system: TO-3-N3 (biotin conjugate); details: RNA library: Library-2
In short: as §1

[3] = test system: TO-3-N3-2 (biotin conjugate); details: RNA library: Library-2
In short: as §1

TO-N3 (biotin conjugate) = details: RNA library: Library-2
In short: as §1

[4] = test system: TO-N3-2 (biotin conjugate); details: RNA library: Library-2
In short: as §1

Sequence | pull-down binding Z-score [1] | pull-down binding Z-score [2] | pull-down binding Z-score [3] | pull-down binding Z-score (TO-N3 (biotin conjugate)) | pull-down binding Z-score [4]
GUGAGAUGUUCAUACAAUCCCUCAC [hsa-mir-216a] | -1.01 | -0.788 | -0.438 | -0.852 | -0.17
GUGAGCGCAGGUCUUUGGCAC [hsa-mir-4450] | 2.36 | 0.104 | 0.39 | 0.339 | 0.729
GUGAGCUCAGCUCCCUGCCUCAC [hsa-mir-3622b] | -1.4 | -0.00258 | -0.173 | 0.138 | 0.811
GUGAGCUGGAAAUGGGGUGCUAC [hsa-mir-598] | 1.37 | 1.46 | 0.651 | 1.5 | 0.962
GUGAGGCAGGGAGCUGAGCUCAC [hsa-mir-3622a] | -0.0355 | 0.401 | 0.142 | 0.698 | 1.06
GUGAGGUAUUUUAGUAACAUCAC [hsa-mir-125b-2] | 0.629 | -0.818 | -0.536 | -0.969 | -0.794
GUGAGUGUCUCUUGUCGC [hsa-mir-1281] | 1.22 | 0.334 | -0.252 | 0.328 | 0.25
GUGAGUUAGAAAAGCUCAAUUCAC [hsa-mir-4457] | -0.276 | -0.654 | -0.365 | -0.662 | -0.405
GUGAUAGGAUUUAUCAC [hsa-mir-4999] | -0.554 | -0.154 | -0.295 | -0.436 | -0.819
GUGAUAGUAAUAAAGUCUCAU [hsa-mir-135a-2] | -0.286 | -0.314 | -0.218 | -0.32 | -0.0282
GUGAUGUGAGGAGCAACAGGCACCCUCCU [hsa-mir-6792] | -0.596 | -0.0611 | 0.254 | 0.246 | 0.846
GUGAUUACAUUAAAACUUAAAAUUUCAC [hsa-mir-4719] | -1.01 | -0.0289 | -0.244 | -0.105 | -0.663
GUGAUUGUCUUCCUCACUCAAUCAG [hsa-mir-4704] | -1.11 | 0.145 | -0.174 | 0.0942 | -0.0609
GUGCACUUCAUUUACGAUGUAG [hsa-mir-1193] | -0.679 | 0.515 | 0.167 | 0.741 | 0.478
GUGCAGCUUGUACCUGCAC [hsa-mir-1293] | -0.00619 | -0.154 | -0.574 | -0.0262 | -0.592
GUGCUGGCAGUGGCCACGUAA [hsa-mir-4276] | 0.096 | -0.0231 | 0.0605 | 0.642 | 1.46
GUGGAACUGACCUGCCCCCUUUCUC [hsa-mir-6817] | -1.77 | 0.152 | 0.124 | 0.517 | 0.882
GUGGAAUGCAAAGUCCCAC [hsa-mir-5698] | -0.39 | -0.264 | -0.36 | -0.332 | -0.551
GUGGACAGAGGCAAAACUCUAACUUC [hsa-mir-6078] | -1.45 | -0.31 | -0.41 | 0.0919 | 0.491

Sequence | pull-down binding Z-score [1] | pull-down binding Z-score [2] | pull-down binding Z-score [3] | pull-down binding Z-score (TO-N3 (biotin conjugate)) | pull-down binding Z-score [4]
GUGGAGCCAAAAUUAGAAGGGCCAAAAUUCUACCUGGCCCACUACCACAG [hsa-mir-3978] | -0.932 | -0.3 | 0.318 | -0.00817 | 0.705
GUGGAGGGUGGUGCCGCCGGGGCCGGGCGCUGUUUCAGCUCGCUUCUCCCCCCAC [hsa-mir-1224] | 0.608 | 2.06 | 1.31 | 2.71 | 2.36
GUGGAGGUAGGCGAGAGUAAUAUAAUUUCUCCAGGAGAACAUCUGAGAGGGGAAGUUGCUUUCCUGCCCUGGCCCUUUCAC [hsa-mir-6076] | -0.319 | 0.431 | 0.000368 | 0.735 | 1.37
GUGGAGUCGGGUCAGACUUCAA [hsa-mir-378c] | -1.13 | -0.461 | -0.477 | -0.0868 | 0.384
GUGGCCUUGGACAAGCCUCUUGGUUAC [hsa-mir-4672] | -0.419 | -0.457 | -0.502 | -0.141 | 0.885
GUGGCUAAUCAGCUGAUGGUGCCAC [hsa-mir-4715] | -0.109 | -0.0716 | -0.511 | -0.26 | -0.545
GUGGCUUCAACCAAGUUCAAAGUCAC [hsa-mir-3186] | -1.08 | -0.304 | -0.378 | -0.441 | -0.383
GUGGCUUGUGGCUGAGUGUCACGCUGC [hsa-mir-6068] | 0.217 | -0.567 | -0.233 | -0.254 | 0.225
GUGGGUCAAGUUUAGAGAUGCACCAAC [hsa-mir-490] | 0.572 | 1.32 | 0.519 | 1.43 | 1.5
GUGGGUUGUGAGGACUGAGGCCAGACCCAC [hsa-mir-181d] | 1.5 | -0.504 | -0.244 | -0.139 | 0.803
GUGGUGGGCACUGCUGGGGUGGGCACAGCAGCCAUGCAGAGCGGGCAUUUGACCCCGUGCCACCCUUUUCCCCAG [hsa-mir-1227] | 0.221 | 2.64 | 1.89 | 3.14 | 2.64
GUGGUUUCAGGGCAGUGAUGUUGCCCCUCGGAAGAUAACUAU [hsa-let-7b] | 0.231 | -0.324 | -0.113 | -0.128 | 0.235
GUGUACAGGGAGGAGACUGUACGUGAGAGAUAGUCAGAUCCGCAUGUUAGAGCAGAGUCUCCUUCGUGUACAG [hsa-mir-4441] | 0.459 | -0.779 | -0.183 | -0.184 | 0.631
GUGUACCUCAUGUGUGUACAC [hsa-mir-5692a-2_5692a-1] | -0.853 | -0.584 | -0.344 | -0.563 | 0.335
GUGUAGAGGCGGAGCACAG [hsa-mir-1471] | 0.507 | 0.151 | 0.381 | 0.847 | 1.46
GUGUAGGGGUGGCUACAC [hsa-mir-4717] | 0.957 | 0.385 | 0.281 | 0.346 | 0.235
GUGUAUGGGCUGAGCCUUGC [hsa-mir-6805] | 0.279 | -0.021 | 0.0312 | 0.44 | 0.868
GUGUCCUGAAAUUCACAGGACUG [hsa-mir-4700] | 1.38 | 0.856 | 0.237 | 0.923 | 0.643
